Results as given in patent US20230212319A1, “NOVEL ANTIGEN BINDING DOMAINS AND SYNTHETIC ANTIGEN RECEPTORS INCORPORATING THE SAME” (University of Southern California, priority 2020, published 2023).

How the values were obtained:
Assay type in all cases: cell-based
RAJI cells = experiment: JNG assay, co-culture with RAJI cells; details: for NFAT-GFP ASSAY: Raji: JNG cells expressing construct, co-culture with Raji
How it was run: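 Jurkat NFAT-GFP (JNG) cells stably transduced with SARs by lentivirus, with drug selection where the construct carried a resistance gene, then co-cultured with target cells at E:T ~1:2 for ~4–18 h. % GFP-positive cells measured by FACS against parental JNG; +/- to 5+ correspond to ~5–50% GFP-positive.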

SKOV-3 cells = experiment: JNG assay, co-culture with SKOV-3 cells; details: for NFAT-GFP ASSAY: SKOV-3: co-culture with SKOV-3
Procedure: Cellular supernatant is collected and assayed for the induction of cytokines (e.g., IL2).
JNG (Jurkat cells expressing EGFP under an NFAT promoter) were infected with lentiviral vectors encoding different single chain and multi-chain SARs by spinfection in the presence of 8 µg/ml of Polybrene® (Sigma, Catalog no. H9268). The Jurkat-NFAT-GFP cells are engineered in such a way that the IL-2 promoter, which carries NFAT binding sites, is cloned upstream of the GFP gene. These cells have been used to study signaling via TCR and CAR. The different SARs were stably expressed in Jurkat NFAT-GFP cells by lentiviral mediated gene transfer, followed by selection with puromycin or blasticidin. No drug selection was used in case the construct lacked an antibiotic resistance gene. The SAR-expressing Jurkat-NFAT-GFP cells were cocultured with the target cells at E:T ratio of approximately 1:2 for approximately 4 hours to 18 hours. When the interaction between SIRs and their target antigen results in activation of the NFAT pathway, GFP expression is induced. […] GFP expression was monitored by FACS analysis. The Jurkat-NFAT-GFP (parental) cells were used as control. The structure of different constructs can be determined based on their names. […] The sequence of the other constructs in the table can be similarly determined from their names and by referring to the different Tables of this disclosure that provide the names and SEQ ID NO of the different modules. Alternatively, the composition and modular architecture of the different SAR constructs can be determined from their sequences by bioinformatics tools, including using nucleic acid and amino acids homology searches. A SAR is considered positive in the assay in case the SAR expressing Jurkat-NFAT-GFP cells show greater % GFP positive cells when cultured with the target cell line as compared to parental Jurkat-NFAT-GFP cells. […] In general, the number +/-, +, 2+, 3+, 4+, 5+ refer to approximately 5%, 10%, 20%, 30%, 40% and 50% GFP positive cells. The % of GFP induction in the above assay is dependent not only the relative strength of the SAR but also, among other factors, on the relative level of expression of the SAR in the JNG cells and the relative level of expression of the target antigen in the target cell line. To control for the difference in gene transduction efficiency of the different SAR constructs, the experiment was conducted with JNG cells transduced with SAR constructs co-expressing a drug resistance gene (e.g., puromycin or PAC) followed by drug selection to generate a stable population of SAR-expressing cells. It is to be noted that the drug resistance gene (e.g., PAC) in the SAR constructs is optional and in vivo studies were conducted with SAR constructs lacking the PAC gene.

Nalm6 cells = experiment: JNG assay, co-culture with Nalm6 cells; details: co-culture with Nalm6 cells
How it was run: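 GFP expression induced through the NFAT pathway was monitored by FACS once SAR-bearing Jurkat reporters had been cultured with target cells at an approximate 1:2 ratio for 4 to 18 hours; parental reporter cells served as the baseline.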

Row | Molecule | GFP induction / activity (RAJI cells; co-culture with RAJI cells) | GFP induction / activity (SKOV-3 cells; co-culture with SKOV-3 cells) | GFP induction / activity (Nalm6 cells) | NFAT-GFP ASSAY: Raji (RAJI cells) | NFAT-GFP ASSAY: SKOV-3 (SKOV-3 cells)
1 | SEQ ID NO: 22177: trispecific SAR construct targeting CD19 and CD20 and coexpressing the ligand binding domain of NKG2D (protein) MALPVTALLLPLALLLHAARPLFNQEVQIPLTESYCGPCPKNWICYKNNCYQFFDESKNWYESQASCMSQNASLLKVYSKEDQDLLKLVKSYHWMGLVHIPTNGSWQWEDGSILSPNLLTIIEMQKGDCALYASSFKGYIENCSTPNTYICMQRTVGGGGSGGGGSGGGGSDLFNQEVQIPLTESYCGPCPKNWICYKNNCYQFFDESKNWYESQASCMSQNASLLKVYSKEDQDLLKLVKSYHWMGLVHIPTNGSWQWEDGSILSPNLLTIIEMQKGDCALYASSFKGYIENCSTPNTYICMQRTVGTGGGGSGGGGSGGGGSEFDIQMTQSPSSLSASVGDRVTITCKASDHINNWLAWYQQKPGQAPKLLIYGATTLETGVPSRFSGSGSGTDYTLTISSLQPEDFATYYCQQSWNTPWTFGQGTKLEIKRLEDLKNVFPPEVAVFEPSKAEIAHTQKATLVCLATGFYPDHVELSWWVNGKEVHSGVCTDPQPLKEQPALNDSRYCLSSRLRVSATFWQNPRNHFRCQVQFYGLSENDEWTQDRAKPVTQIVSAEAWGRADCGITSASYHQGVLSATILYEILLGKATLYAVLVSALVLMAMVKRKDSRGRAKRSGSGATNFSLLKQAGDVEENPGPTSATMDWIWRILFLVGAATGAHSGPQVQLQESGGGLAQAGGSLRLSCAASGRTFSMGWFRQAPGKEREFVAAITYSGGSPYYASSVRGRFTISRDNAKNTVYLQMNSLKPEDTAVYYCAANPTYGSDWNAENWGQGTQVTVSSGSGGGGSGGGGSGGGGSFEQVQLQQPGAELVKPGASVKMSCKASGYAFSSYWINWMKQKPGQGLEWIGQIYPGDGDTNYNGKFKGRATLTADTSSSTAYMQLSSLTSEDSAVYFCARSITTVVGCAMDYWGQGTSVTVSSTRIQNPDPAVYQLRDSKSSDKSVCLFTDFDSQTNVSQSKDSDVYITDKCVLDMRSMDFKSNSAVAWSNKSDFACANAFNNSIIPEDTFFPSSDVPCDVKLVEKSFETDTNLNFQNLSVIGFRILLLKVAGFNLLMTLRLWSSRAKRSGSGVKQTLNFDLLKLAGDVESNPGPSRGHMTEYKPTVRLATRDDVPRAVRTLAAAFADYPATRHTVDPDRHIERVTELQELFLTRVGLDIGKVWVADDGAAVAVWTTPESVEAGAVFAEIGPRMAELSGSRLAAQQQMEGLLAPHRPKEPAWFLATVGVSPDHQGKGLGSAVVLPGVEAAERAGVPAFLETSAPRNLPFYERLGFTVTADVEVPEGPRTWCMTRKPGA | robust activity | robust activity | robust activity |  | 
2 | 22195 (protein) MALPVTALLLPLALLLHAARPDIQMTQSPSSLSASVGDRVTITCKASDHINNWLAWYQQKPGQAPKLLIYGATTLETGVPSRFSGSGSGTDYTLTISSLQPEDFATYYCQQSWNTPWTFGQGTKLEIKRLEDLKNVFPPEVAVFEPSEAEISHTQKATLVCLATGFYPDHVELSWWVNGKEVHSGVCTDPQPLKEQPALNDSRYCLSSRLRVSATFWQNPRNHFRCQVQFYGLSENDEWTQDRAKPVTQIVSAEAWGRADCGFTSESYQQGVLSATILYEILLGKATLYAVLVSALVLMAMVKRKDSRGRAKRSGSGATNFSLLKQAGDVEENPGPTSATMDWIWRILFLVGAATGAHSGPGSDLGIKLLFAAAKGQDDEVRILLAAGADVNAKDFEGYTPLHVAAYDGHLEIVEVLLKAGADVNAKDSQGRTPLHEAAYSGHLEIVEVLLKAGADVNAQDDAGETPADLAAAWGHEDIAEVLQKGSGGGGSGGGGSGGGGSFEQVQLQQPGAELVKPGASVKMSCKASGYAFSSYWINWMKQKPGQGLEWIGQIYPGDGDTNYNGKFKGRATLTADTSSSTAYMQLSSLTSEDSAVYFCARSITTVVGCAMDYWGQGTSVTVSSTRIQNPDPAVYQLRDSKSSDKSVCLFTDFDSQTNVSQSKDSDVYITDKCVLDMRSMDFKSNSAVAWSNKSDFACANAFNNSIIPEDTFFPSPESSCDVKLVEKSFETDTNLNFQNLSVIGFRILLLKVAGFNLLMTLRLWSSRAKRSGSGVKQTLNFDLLKLAGDVESNPGPSRGHMTEYKPTVRLATRDDVPRAVRTLAAAFADYPATRHTVDPDRHIERVTELQELFLTRVGLDIGKVWVADDGAAVAVWTTPESVEAGAVFAEIGPRMAELSGSRLAAQQQMEGLLAPHRPKEPAWFLATVGVSPDHQGKGLGSAVVLPGVEAAERAGVPAFLETSAPRNLPFYERLGFTVTADVEVPEGPRTWCMTRKPGA |  |  |  | 4+ (refer to approximately 5%, 10%, 20%, 30%, 40% and 50% GFP positive cells) | 4+ (refer to approximately 5%, 10%, 20%, 30%, 40% and 50% GFP positive cells)
3 | 22197 (protein) MALPVTALLLPLALLLHAARPDIQMTQSPSSLSASVGDRVTITCKASDHINNWLAWYQQKPGQAPKLLIYGATTLETGVPSRFSGSGSGTDYTLTISSLQPEDFATYYCQQSWNTPWTFGQGTKLEIKRLEDLKNVFPPEVAVFEPSEAEISHTQKATLVCLATGFYPDHVELSWWVNGKEVHSGVCTDPQPLKEQPALNDSRYCLSSRLRVSATFWQNPRNHFRCQVQFYGLSENDEWTQDRAKPVTQIVSAEAWGRADCGFTSESYQQGVLSATILYEILLGKATLYAVLVSALVLMAMVKRKDSRGRAKRSGSGATNFSLLKQAGDVEENPGPTSATMDWIWRILFLVGAATGAHSGPGSDLGIKLLFAAAKGQDDEVRILLAAGADVNAKDFEGYTPLHVAAYDGHLEIVEVLLKAGADVNAKDSQGRTPLHEAAYSGHLEIVEVLLKAGADVNAQDDAGETPADLAAAWGHEDIAEVLQKGSGGGGSGGGGSGGGGSFEQVQLQQPGAELVKPGASVKMSCKASGYAFSSYWINWMKQKPGQGLEWIGQIYPGDGDTNYNGKFKGRATLTADTSSSTAYMQLSSLTSEDSAVYFCARSITTVVGCAMDYWGQGTSVTVSSTRIQNPDPAVYQLRDSKSSDKSVCLFTDFDSQTNVSQSKDSDVYITDKCVLDMRSMDFKSNSAVAWSNKSDFACANAFNNSIIPEDTFFPSPESSCDVKLVEKSFETDTNLNFQNLSVIGFRILLLKVAGFNLLMTLRLWSSRAKRSGSGVKQTLNFDLLKLAGDVESNPGPSRGHMTEYKPTVRLATRDDVPRAVRTLAAAFADYPATRHTVDPDRHIERVTELQELFLTRVGLDIGKVWVADDGAAVAVWTTPESVEAGAVFAEIGPRMAELSGSRLAAQQQMEGLLAPHRPKEPAWFLATVGVSPDHQGKGLGSAVVLPGVEAAERAGVPAFLETSAPRNLPFYERLGFTVTADVEVPEGPRTWCMTRKPGA |  |  |  | 2+ (refer to approximately 5%, 10%, 20%, 30%, 40% and 50% GFP positive cells) | 5+ (refer to approximately 5%, 10%, 20%, 30%, 40% and 50% GFP positive cells)
